Assay results as given in patent publication US20250171542A1 (ADEPT THERAPEUTICS, published 2025).
Numbering of substitutions follows the chain as printed. Values belong to the binder of their own block, whether it stands above or below them.

How the values were obtained:
[1] = biological target: T1, rat PD-L1 (Sino Biological, Cat #80450-R08H) (rat, UniProt D4AE25 19-239); test: ELISA
T1 construct: not shown: The vendor's polyhistidine tag

[2] = biological target: T2, canine PD-L1 (Acro Biosystems, Cat #PDL-C52H4) (canine, UniProt E2RKZ5 19-236); test: ELISA
T2 construct: not shown: The vendor's tag, probably a polyhistidine tag
T2 sequence: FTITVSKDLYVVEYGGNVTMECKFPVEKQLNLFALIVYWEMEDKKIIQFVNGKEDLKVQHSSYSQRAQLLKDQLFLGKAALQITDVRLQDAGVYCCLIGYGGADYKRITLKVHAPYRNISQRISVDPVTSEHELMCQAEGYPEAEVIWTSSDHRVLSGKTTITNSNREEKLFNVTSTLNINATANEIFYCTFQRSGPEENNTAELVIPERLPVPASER

[3] = biological target: T3, CD80 (Sino Biological, Cat #10698-H08H) (UniProt P33681 35-242); test: ELISA
T3 sequence (looked up): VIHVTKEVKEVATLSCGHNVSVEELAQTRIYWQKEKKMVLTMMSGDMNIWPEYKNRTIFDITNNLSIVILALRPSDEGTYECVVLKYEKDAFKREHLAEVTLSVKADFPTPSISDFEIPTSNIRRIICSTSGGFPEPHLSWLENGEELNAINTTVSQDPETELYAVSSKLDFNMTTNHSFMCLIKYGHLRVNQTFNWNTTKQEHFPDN

[4] = biological target: T4, BH-H2 (Sino Biological, Cat #11559-H08H) (UniProt O75144 19-258); test: ELISA
T4 sequence (looked up): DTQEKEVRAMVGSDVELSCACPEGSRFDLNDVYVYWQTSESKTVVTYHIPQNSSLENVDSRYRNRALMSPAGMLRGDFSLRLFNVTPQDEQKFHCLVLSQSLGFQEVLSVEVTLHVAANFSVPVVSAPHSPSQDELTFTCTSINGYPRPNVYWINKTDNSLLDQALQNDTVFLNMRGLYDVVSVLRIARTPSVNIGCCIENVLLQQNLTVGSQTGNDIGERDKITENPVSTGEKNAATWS

[5] = biological target: T5, human PD-L1 expressed on cell surface (human, UniProt Q9NZQ7 19-290); test: cell-based or functional assay
T5 sequence (Q9NZQ7 19-290 limits assumed): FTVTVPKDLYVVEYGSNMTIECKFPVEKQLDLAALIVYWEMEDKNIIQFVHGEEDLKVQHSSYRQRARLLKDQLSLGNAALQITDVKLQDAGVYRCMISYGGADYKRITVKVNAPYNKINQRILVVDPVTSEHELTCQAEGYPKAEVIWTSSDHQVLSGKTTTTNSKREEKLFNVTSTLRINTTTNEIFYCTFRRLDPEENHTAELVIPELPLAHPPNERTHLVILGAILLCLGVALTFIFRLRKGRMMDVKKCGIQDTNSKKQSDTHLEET

[6] = biological target: T6, cynomolgus PD-L1-His (Sino Biological, Cat. 90251-C08H) (cynomolgus, UniProt Q9NZQ7 19-238 (human entry)); test: ELISA, coated cyno PD-L1-His
T6 construct: Bought protein; also called Cyno PD-L1; Cynomolgus PD-L1 ECD-His; not shown: His tag
T6 sequence (Q9NZQ7 other isoform, or with tags, fused parts or gaps C08H C08H limits assumed): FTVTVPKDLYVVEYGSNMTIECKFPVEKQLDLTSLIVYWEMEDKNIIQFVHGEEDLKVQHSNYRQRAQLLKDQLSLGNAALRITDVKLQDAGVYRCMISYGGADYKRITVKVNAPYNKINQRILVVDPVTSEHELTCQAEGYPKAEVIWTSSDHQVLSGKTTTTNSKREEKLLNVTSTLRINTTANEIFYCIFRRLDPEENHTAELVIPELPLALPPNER
Method: (§1) Briefly, Maxisorp plates (Nunc) were coated with 100 ul/well of 0.5 μg/ml human PD-L1-His (Sino Biological, Cat #10084-H08H) or cynomolgus PD-L1-His (Sino Biological, Cat. 90251-C08H) protein diluted in 1×PBS (GIBCO) overnight at 4° C. Plates were washed three times with 300 μl/well washing buffer (1×PBST, diluted from 20×PBST (Thermo Scientific) with distilled water)) and then blocked with 300 μl/well of blocking buffer (1×PBST/I % BSA) for 2 hours at RT on shaker (100 rpm). Plates were washed and added with 100 μl/well of testing antibodies, which were serial diluted with assay buffer (PBST/1% BSA). The antibodies were incubated at room temperature for 2 hours on plate shaker at 100 rpm. Plates were washed. One hundred microliter of horseradish peroxidase (HRP) conjugated detection antibody was added into each well and incubated at room temperature for 1 hour on plate shaker at 100 rpm. Plates were washed and added with 100 μl/well TMB substrate for color development at room temperature in dark for up to 10 minutes. After addition of 50 μl/well of stop solution (1N H₂SO₄), plates were read at 450 nm on a plate reader (SpectraMax M5).
(§2) Anti-HEL isotype control (Biolntron) was used as negative control.

[7] = biological target: T7, human PD-L1-His (Sino Biological, Cat #10084-H08H) (human, UniProt Q9NZQ7 19-238); test: ELISA, coated human PD-L1-His
T7 construct: Bought protein; also called human PD-L1 ECD-His; recombinant human PD-L1-His protein; not shown: His tag
T7 sequence (Q9NZQ7 19-238): as the sequence (Q9NZQ7 other isoform, or with tags, fused parts or gaps C08H C08H limits assumed) above, with T33A, S34A, N62S, Q68R, R82Q, L173F, A185T, I192T, L215H counted along it
Method: as §1, §2

[8] = biological target: T6, cynomolgus PD-L1-His (Sino Biological, …); test: BLI (Gator), cynomolgus PD-L1
[9] = biological target: T5, human PD-L1 expressed on cell surface; test: flow cytometry, MDA-MB-231-GFP cells
Method: Cells were then resuspended in FACS buffer (1×DPBS/1% FBS) at 10⁶/ml concentration. One hundred microliter (100 μl) of cells were aliquoted into a single well in 96 well plates. The antibodies to be tested were serially diluted at 1:3 fold starting at 15 ug/mL and were then added into each well. The antibodies were mixed with cells and the mixtures were incubated on ice for 1 hour. […] After washing with FACS buffer, stained cells were resuspended at diluted […] (Biolegend, Cat #420404, used at 1:100 dilution) and analyzed on Guava 11HT (Luminex). Data was analyzed using Flowjo software.
as §2

[10] = biological target: T7, human PD-L1-His (Sino Biological, Cat …); test: BLI (Gator), antibody on HFC probe, human PD-L1-His in solution
Method: The affinity of the binding of the exemplary anti-PD-L1 antibodies of the present disclosure was determined. Assay was performed according to the protocol recommended by Gator or Gator Plus (Gator Bio Inc.). Briefly, human PD-L1-His (Sino Biological, Cat #10084-H08H) was serially diluted 4-fold, starting at 4 μg/ml. After three times of regeneration in generation buffer (Gator Bio, Cat #120012) and neutralization of HFC probe (Gator Bio, Cat #160003), 1 μg/ml of antibody to be tested in Q buffer (Gator Bio, Cat #120010) was immobilized onto HFC probe. After a baseline step, probe immobilized with antibody was dipped into antigen solutions. The association and dissociation of antigen from antibody was measured on BLI machine Gator. Affinity was calculated using Gator Bio analysis software.
Table 22 below summarizes the binding affinity to human PD-L1 using Gator.

T1 sequence (D4AE25 entry or part of it R08H R08H limits assumed): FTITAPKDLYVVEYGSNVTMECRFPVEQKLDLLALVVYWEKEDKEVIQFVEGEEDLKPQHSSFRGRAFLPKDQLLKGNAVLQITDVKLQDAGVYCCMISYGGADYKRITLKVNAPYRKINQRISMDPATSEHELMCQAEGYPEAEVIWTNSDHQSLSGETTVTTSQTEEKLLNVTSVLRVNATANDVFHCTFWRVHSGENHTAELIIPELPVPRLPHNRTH

- binding result [1]: no binding
- binding result [2]: no binding
- binding result [3]: no binding
- binding result [4]: no binding
- Internalization (%), FACS, 0.25 µg/ml, 2 h [5]: 22%
- Internalization (%), FACS, 0.25 µg/ml, 4 h [5]: 15.6%
- Internalization (%), FACS, 0.5 µg/ml, 2 h [5]: 17.8%
- Internalization (%), FACS, 0.5 µg/ml, 4 h [5]: 23%
- Internalization (%), FACS, 1 µg/ml, 2 h [5]: 19.5%
- Internalization (%), FACS, 1 µg/ml, 4 h [5]: 15.7%
- Internalization (%), FACS, 2 µg/ml, 2 h [5]: 22.5%
- Internalization (%), FACS, 2 µg/ml, 4 h [5]: 21.7%
- EC50 [6]: 0.0121 nM
- EC50 [7]: 0.016 nM
- Kd [8]: ≤ 0.03 nM
- koff [8]: ≤ 1e-05 s⁻¹
- kon [8]: 344000 M⁻¹ s⁻¹
- EC50 [9]: 1.81 nM
- Kd [10]: 0.12 nM
- koff [10]: 9.39e-05 s⁻¹
- kon [10]: 804000 M⁻¹ s⁻¹
B1: 73C8 (antibody, human IgG1, V domains shown)
VH: QEQLEESGGGLVQPEGSLTLTCTVSGFSFSGDYYMSWVRQAPGKGLEWVASIYTGSLNTYYATWAKGRFTISLTSSTTVTLQMTSLTAADTATYFCARRNKNADYGHFDLWGPGTLVTVSS
VL: YDMTQTPASVEVAVGGTVTIKCQASQSINDRLAWYQQKPGQPPKLLIYAASTLASGVPSRFRGSGSGTDFTLTISDLECADAATYYCQQGWTVSSLDNAFGGGTEVVAM

- binding result [1]: no binding
- binding result [2]: no binding
- binding result [3]: no binding
- binding result [4]: no binding
- Internalization (%), FACS, 0.25 µg/ml, 2 h [5]: 17.9%
- Internalization (%), FACS, 0.25 µg/ml, 4 h [5]: 21.3%
- Internalization (%), FACS, 0.5 µg/ml, 2 h [5]: 19.7%
- Internalization (%), FACS, 0.5 µg/ml, 4 h [5]: 14.7%
- Internalization (%), FACS, 1 µg/ml, 2 h [5]: 16.7%
- Internalization (%), FACS, 1 µg/ml, 4 h [5]: 16.8%
- Internalization (%), FACS, 2 µg/ml, 2 h [5]: 14.5%
- Internalization (%), FACS, 2 µg/ml, 4 h [5]: 15.4%
- EC50 [6]: 0.0138 nM
- EC50 [7]: 0.0216 nM
- Kd [8]: 0.27 nM
- koff [8]: 0.000101 s⁻¹
- kon [8]: 373000 M⁻¹ s⁻¹
- EC50 [9]: 1.24 nM
- Kd [10]: 0.31 nM
- koff [10]: 0.000113 s⁻¹
- kon [10]: 371000 M⁻¹ s⁻¹
B2: 57F11 (antibody, human IgG1, V domains shown)
VH: B1 VH with Q3H, S17A, V24A, V49I, L73I, T74A, M83V, N100T, A103G, H107Y
VL: B1 VL with R62K, D69E, D97E, M109K

- binding result [1]: no binding
- binding result [2]: no binding
- binding result [3]: no binding
- binding result [4]: no binding
- Internalization (%), FACS, 0.25 µg/ml, 2 h [5]: 11.5%
- Internalization (%), FACS, 0.25 µg/ml, 4 h [5]: 11%
- Internalization (%), FACS, 0.5 µg/ml, 2 h [5]: 13.2%
- Internalization (%), FACS, 0.5 µg/ml, 4 h [5]: 12%
- Internalization (%), FACS, 1 µg/ml, 2 h [5]: 17.7%
- Internalization (%), FACS, 1 µg/ml, 4 h [5]: 9.2%
- Internalization (%), FACS, 2 µg/ml, 2 h [5]: 13.9%
- Internalization (%), FACS, 2 µg/ml, 4 h [5]: 11.7%
- EC50 [6]: 0.0198 nM
- EC50 [7]: 0.0229 nM
- Kd [8]: 3.09 nM
- koff [8]: 0.000915 s⁻¹
- kon [8]: 296000 M⁻¹ s⁻¹
- EC50 [9]: 0.34 nM
- Kd [10]: 0.36 nM
- koff [10]: 0.000234 s⁻¹
- kon [10]: 643000 M⁻¹ s⁻¹
B3: 74A9 (antibody, human IgG1, V domains shown)
VH: QSVEESGGRLVTPGTPLTLTCAVSGFSLSTYALGWVRQAPGKGLEWIGSISIGGATYYASWAKGRFTISKTSTTVDLKIASPTTEDTATYFCARNVDSIYLDAFHTWGPGTLVTVSL
VL: DIVMTQTPASVEAAVGGTVTIKCQASQNIYNNLAWYQQKPGQPPKLLIYRASTLASGVPSRFKGSGSGTEYTLTISDLECDDAATYYCQTYYLTTTTNAFGGGTEVVVK
